Paper PMC8041772, “Activation mechanism of a small prototypic Rec-GGDEF diguanylate cyclase” (Nature Communications, 2021)
Blank lines part the entries; values can stand above or below the compound they belong to.

What was measured:
[1] = target: T1, DgcR (Leptospira biflexa, UniProt B0SUI1); experiment: crystal structure at […] Å (DgcR_inh); product-inhibition Ki from progress curves (oIEC), about […] for BeF3-activated and about […] for native enzyme; format: biochemical
T1 construct: gene LEPBI_p0053; full-length (298 residues), dimer
T1 sequence (B0SUI1 1-298): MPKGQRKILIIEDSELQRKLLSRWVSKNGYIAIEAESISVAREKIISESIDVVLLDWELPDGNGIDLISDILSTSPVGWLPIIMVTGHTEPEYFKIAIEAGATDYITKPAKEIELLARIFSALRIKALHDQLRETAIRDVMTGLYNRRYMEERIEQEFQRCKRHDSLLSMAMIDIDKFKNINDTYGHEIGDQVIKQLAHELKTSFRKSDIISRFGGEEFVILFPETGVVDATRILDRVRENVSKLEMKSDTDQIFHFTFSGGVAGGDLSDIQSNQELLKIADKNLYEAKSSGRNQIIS

[2] = target: DgcR wild type, BeF3- modified (pseudo-phosphorylated, activated) (Leptospira biflexa); experiment: SEC-MALS; in-line multi-angle light scattering and refractive index; 100 µL loaded at 0.5 to 10 mg/mL with various ligands; 20 mM Tris pH 8.0, 500 mM NaCl (or 20 mM NaCl), 5 mM MgCl2, 1 mM DTT; substrate analogue, product or lower salt did not change the quaternary state
[3] = target: DgcR (LEPBI_RS18680, diguanylate cyclase controlled by Rec) from Leptospira biflexa, wild type, native (Leptospira biflexa); experiment: as above

Ki [1]: ~150 nM
Compound: Nc1nc2c(ncn2[C@@H]2O[C@@H]3CO[P@](=O)(O)O[C@H]4[C@@H](O)[C@H](n5cnc6c(=O)[nH]c(N)nc65)O[C@@H]4CO[P@](=O)(O)O[C@H]3[C@H]2O)c(=O)[nH]1 [c-di-GMP]

stoichiometry N [2]: 2
Compound: DgcR wild type, BeF3- modified (pseudo-phosphorylated, activated) (enzyme)

stoichiometry N [3]: 2
Compound: DgcR (LEPBI_RS18680, diguanylate cyclase controlled by Rec) from Leptospira biflexa, wild type, native (enzyme)
